In patent publication US20250075002A1:

Biological target: Human MUC1 (full length), on cells (human) (UniProt P15941)
Experiment: cell-based or functional assay

Human MUC1 (full length), on cells (human), sequence (P15941 24-1255 limits assumed): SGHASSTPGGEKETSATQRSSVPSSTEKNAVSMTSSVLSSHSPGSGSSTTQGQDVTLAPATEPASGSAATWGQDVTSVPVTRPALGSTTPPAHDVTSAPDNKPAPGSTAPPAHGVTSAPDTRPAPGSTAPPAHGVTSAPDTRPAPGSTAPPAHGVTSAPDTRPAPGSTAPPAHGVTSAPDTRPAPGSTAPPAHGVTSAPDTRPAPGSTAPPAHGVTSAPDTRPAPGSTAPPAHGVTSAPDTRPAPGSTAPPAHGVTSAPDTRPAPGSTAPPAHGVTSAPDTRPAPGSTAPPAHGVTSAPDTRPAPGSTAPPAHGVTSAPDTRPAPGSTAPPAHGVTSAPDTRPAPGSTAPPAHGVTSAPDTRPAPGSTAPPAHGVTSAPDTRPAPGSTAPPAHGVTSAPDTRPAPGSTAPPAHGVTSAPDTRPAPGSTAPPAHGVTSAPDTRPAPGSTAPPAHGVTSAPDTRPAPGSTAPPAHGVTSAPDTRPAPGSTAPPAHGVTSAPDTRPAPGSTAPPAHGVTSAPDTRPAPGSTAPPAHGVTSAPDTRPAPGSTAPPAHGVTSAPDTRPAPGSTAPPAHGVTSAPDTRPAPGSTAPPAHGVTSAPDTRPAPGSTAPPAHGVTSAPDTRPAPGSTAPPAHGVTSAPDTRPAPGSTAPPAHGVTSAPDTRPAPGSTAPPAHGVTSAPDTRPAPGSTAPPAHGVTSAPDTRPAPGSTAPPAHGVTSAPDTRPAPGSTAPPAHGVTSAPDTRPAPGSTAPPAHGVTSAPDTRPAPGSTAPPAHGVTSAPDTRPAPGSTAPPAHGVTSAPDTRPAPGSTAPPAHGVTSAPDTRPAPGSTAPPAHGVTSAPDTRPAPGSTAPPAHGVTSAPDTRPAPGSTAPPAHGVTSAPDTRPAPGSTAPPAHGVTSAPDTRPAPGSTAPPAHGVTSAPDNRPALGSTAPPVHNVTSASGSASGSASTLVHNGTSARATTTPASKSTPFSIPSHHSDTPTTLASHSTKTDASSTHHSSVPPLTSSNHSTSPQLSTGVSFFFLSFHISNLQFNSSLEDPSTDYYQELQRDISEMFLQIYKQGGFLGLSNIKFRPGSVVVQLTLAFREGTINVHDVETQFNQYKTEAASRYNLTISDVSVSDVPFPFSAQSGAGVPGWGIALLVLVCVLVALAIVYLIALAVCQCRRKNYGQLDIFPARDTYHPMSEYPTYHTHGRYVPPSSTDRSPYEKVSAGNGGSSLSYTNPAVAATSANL

B1: MUC1 5F3-hFc-AF (antibody, V domains shown)
VH: DVQVQESGPDLVKPSQSLSLTCTVTGHSITRGSSWHWIRQFPGNKLEWMGYIHYGGGTSYNPSLKSRISITRDTSKNQFFLQLNSVTTEDTATFFCARYSYDITYRWFFDVWGAGTTVIVSS
VL: DILLTQSPAILSVSPGERVSFSCRASQNIGTSIHWYQQRKNGSPRLLIKYASESISGIPSRFSGSGSGTDFTLSINSVESEDMADYYCQQNNNWPLTFGAGTKLELK
In the case of B1, the Cell lysis activity EC50, T-47D/nanoluc in human whole blood is reported as 0.464 nM and the Cell lysis activity Emax, T-47D/nanoluc in human whole blood is reported as 7.78%.

B2: huBG219P-E39-AF (antibody, human IgG1, V domains shown)
VH: EVQLLESGGGLVQPGGSLRLSCAASGFTFNDYIMSWVRQAPGKGLEWVATVSSGGDNTYYPDSVKGRFTISRDNSKNTLYLQMNSLRAEDTAVYYCTRYGGLGAMDYWGQGTLVTVSS
VL: DIQMTQSPSSLSASVGDRVTITCRASGNIHNYLTWYQQKPGKAPKLLIYNAKTLASGVPSRFSGSGSGTDFTLTISSLQPEDFATYYCQHFWSVPYTFGQGTKLEIK
modifications: afucosylated Fc glycan (-AF; expressed with 2F-peracetyl-fucose)
Work on B2 yielded an ADCC EC50, HCC827 (MUC1 medium), NK92mi/CD16A F158 effectors, w/o huIgG of 11.5 nM, an ADCC EC50, T-47D (MUC1 high), NK92mi/CD16A F158 effectors, w/o huIgG of 1.3 nM and an ADCC EC50, T-47D (MUC1 high), NK92mi/CD16A V158 effectors, w/o huIgG of 0.603 nM. The ADCC Emax, H358 (MUC1 low), NK92mi/CD16A F158 effectors, 10 mg/ml huIgG1 was 10.7%, the ADCC Emax, H358 (MUC1 low), NK92mi/CD16A F158 effectors, w/o huIgG was 10.2% and the ADCC Emax, H358 (MUC1 low), NK92mi/CD16A V158 effectors, 10 mg/ml huIgG1 was 15.5%. It also gave an ADCC Emax, H358 (MUC1 low), NK92mi/CD16A V158 effectors, w/o huIgG of 15.6%, an ADCC Emax, HCC827 (MUC1 medium), NK92mi/CD16A F158 effectors, 10 mg/ml huIgG1 of 31% and an ADCC Emax, HCC827 (MUC1 medium), NK92mi/CD16A F158 effectors, w/o huIgG of 36.8%. For the same binder, the ADCC Emax, HCC827 (MUC1 medium), NK92mi/CD16A V158 effectors, 10 mg/ml huIgG1 was 26.7%, the ADCC Emax, HCC827 (MUC1 medium), NK92mi/CD16A V158 effectors, w/o huIgG was 25% and the ADCC Emax, T-47D (MUC1 high), NK92mi/CD16A F158 effectors, 10 mg/ml huIgG1 was 25.7%. For the same binder, the ADCC Emax, T-47D (MUC1 high), NK92mi/CD16A F158 effectors, w/o huIgG was 48.2%, the ADCC Emax, T-47D (MUC1 high), NK92mi/CD16A V158 effectors, 10 mg/ml huIgG1 was 19.2% and the ADCC Emax, T-47D (MUC1 high), NK92mi/CD16A V158 effectors, w/o huIgG was 33.6%. It also gave a Cell lysis activity EC50, T-47D (MUC1 high) in human whole blood of 1.25 nM, a Cell lysis activity Emax, H358 (MUC1 low) in human whole blood of 8.6% and a Cell lysis activity Emax, HCC827 (MUC1 medium) in human whole blood of 14.1%. It also gave a Cell lysis activity Emax, T-47D (MUC1 high) in human whole blood of 20.2%, a Phagocytosis (ADCP) EC50, T-47D, human M2 macrophages, w/o huIgG of 0.05 nM and a Phagocytosis (ADCP) Emax, T-47D, human M2 macrophages, 10 mg/ml huIgG1 of 17.6%. For the same binder, the Phagocytosis (ADCP) Emax, T-47D, human M2 macrophages, w/o huIgG was 56.4%.
